Reference: the supplement of paper PMC9233669
Fewer inactive variants are shown than the library holds.

Assays:
biotinyl-Trp-oxazolone = test: self-aminoacylation, catalytic enhancement (BWO) (fold over background); higher = more active; k-Seq, kA / k0A0; sequences stand for … in GGGAAUGGAUCCACAUCUACGAAUUC…UUCACUGCAGACUUGACGAAGCUG
Summary of the method: (§1)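 Mutagenized RNA pools with a 21-nt variable region (0.43 μM) were reacted with each biotinyl-aminoacyl-oxazolone at 2–1250 μM for 90 minutes at room temperature, in 50 μL HEPES/NaCl/KCl/MgCl2/CaCl2 buffer containing 5% acetonitrile at pH 6.9–7.0. RNA captured on streptavidin was quantified by triplicate qPCR and by Illumina sequencing. The fraction reacted for each sequence was fit to a pseudo-first-order model with bootstrapping, and catalytic enhancement is the median kA divided by the uncatalyzed rate, taken as the low-activity peak of a bimodal Gaussian fit.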

biotinyl-Val-oxazolone = test: self-aminoacylation, catalytic enhancement (BVO) (fold over background); higher = more active; k-Seq, kA / k0A0; sequences stand for … in GGGAAUGGAUCCACAUCUACGAAUUC…UUCACUGCAGACUUGACGAAGCUG
Summary of the method: as §1

biotinyl-Leu-oxazolone = test: self-aminoacylation, catalytic enhancement (BLO) (fold over background); higher = more active; k-Seq, kA / k0A0; sequences stand for … in GGGAAUGGAUCCACAUCUACGAAUUC…UUCACUGCAGACUUGACGAAGCUG
Summary of the method: as §1

biotinyl-Phe-oxazolone = test: self-aminoacylation, catalytic enhancement (BFO) (fold over background); higher = more active; k-Seq, kA / k0A0; sequences stand for … in GGGAAUGGAUCCACAUCUACGAAUUC…UUCACUGCAGACUUGACGAAGCUG
Summary of the method: as §1

biotinyl-Met-oxazolone = test: self-aminoacylation, catalytic enhancement (BMO) (fold over background); higher = more active; k-Seq, kA / k0A0; sequences stand for … in GGGAAUGGAUCCACAUCUACGAAUUC…UUCACUGCAGACUUGACGAAGCUG
Summary of the method: as §1

biotinyl-Ile-oxazolone = test: self-aminoacylation, catalytic enhancement (BIO) (fold over background); higher = more active; k-Seq, kA / k0A0; sequences stand for … in GGGAAUGGAUCCACAUCUACGAAUUC…UUCACUGCAGACUUGACGAAGCUG
Summary of the method: as §1

Row | Sequence | self-aminoacylation (biotinyl-Trp-oxazolone) | self-aminoacylation (biotinyl-Val-oxazolone) | self-aminoacylation (biotinyl-Leu-oxazolone) | self-aminoacylation (biotinyl-Phe-oxazolone) | self-aminoacylation (biotinyl-Met-oxazolone) | self-aminoacylation (biotinyl-Ile-oxazolone)
1 | CUAUUUCAAACAAUCCGUCUG [Fam1A.1 aminoacylation ribozyme variant] | 0.595 | 0.735 | 0.715 | 0.946 | 0.818 | 0.826
2 | UCACACUUCAAGCAGUCGGUC [Fam1B.1 aminoacylation ribozyme variant] | 0.901 | 0.972 | 0.879 | 1.06 | 0.968 | 0.827
3 | CCACACUUCGAUCAAUCGGUC [Fam1B.1 aminoacylation ribozyme variant] | 0.903 | 0.871 | 0.777 | 0.966 | 0.767 | 0.826
4 | AUUCCCCUAGGUCGUCGGGUG [Fam2.2 aminoacylation ribozyme variant] | 7.42 | 5.97 | 9.19 | 31.9 | 7.13 | 5.97
5 | CCACACUUCGGGCAAUCGGUC [Fam1B.1 aminoacylation ribozyme variant] | 2.23 | 3.09 | 2.48 | 9.3 | 2.73 | 2.1
6 | AGUACCCUGGUCAUCGAGUGG [Fam2.1 aminoacylation ribozyme variant] | 4.19 | 2.65 | 4.23 | 6.94 | 5.15 | 2.26
7 | AUUACCCUGGUUAUUGAGUGA [Fam2.1 aminoacylation ribozyme variant] | 17.8 | 6.4 | 15.1 | 102 | 14.4 | 6.24
8 | CUGCUUCAAACAAUCGGUUUG [Fam1A.1 aminoacylation ribozyme variant] | 84.2 | 2.1 | 3.93 | 223 | 2.38 | 2.07
9 | CUACACUUCCAGCAAUCGGUC [Fam1B.1 aminoacylation ribozyme variant] | 0.707 | 1.07 | 1.1 | 0.865 | 0.787 | 1.07
10 | CUACUUCGAACAAACGGUCUG [Fam1A.1 aminoacylation ribozyme variant] | 0.619 | 0.805 | 0.535 | 0.51 | 0.664 | 0.709
11 | CUACUUCAAAAAAUCUGUCUG [Fam1A.1 aminoacylation ribozyme variant] | 0.797 | 0.699 | 0.61 | 1.36 | 0.589 | 0.84
12 | GUUCACCUAGGUCAUGGGGUG [Fam2.2 aminoacylation ribozyme variant] | 4.06 | 3.01 | 4.4 | 10.3 | 3.63 | 2.64
13 | AUUCACCUAGGUGAUCGGCUG [Fam2.2 aminoacylation ribozyme variant] | 1.67 | 1.66 | 1.98 | 9.04 | 1.74 | 1.77
14 | AUUACCGUUGUCAUCGAGUGA [Fam2.1 aminoacylation ribozyme variant] | 9.94 | 4.16 | 8.01 | 40.2 | 7.75 | 4.49
15 | AUUCACCUAGGUCAACAGGUG [Fam2.2 aminoacylation ribozyme variant] | 1.87 | 1.56 | 2.8 | 5.63 | 2.2 | 1.64
16 | AACUUUGCUAAUAGUCGGAAG [Fam3.1 aminoacylation ribozyme variant] | 1.49 | 1.4 | 1.15 | 3.03 | 1.38 | 1.43
17 | AUUUAGCUAGGUCAUCGGGUG [Fam2.2 aminoacylation ribozyme variant] | 6.01 | 4 | 5.39 | 50.1 | 4.72 | 3.83
18 | CUUCAACUAGGUCAUCGGGUG [Fam2.2 aminoacylation ribozyme variant] | 4.93 | 3.22 | 6.16 | 31.8 | 5.42 | 3.17
19 | AUUCACCUAGCUCAUGGGGUG [Fam2.2 aminoacylation ribozyme variant] | 4.56 | 2.8 | 5.64 | 32.8 | 5.15 | 2.97
20 | AUUACCCUGGUCAUCGUGAGA [Fam2.1 aminoacylation ribozyme variant] | 0.867 | 0.789 | 0.777 | 0.858 | 0.897 | 0.703
21 | AUUACACUGGUCAGCGAGUGA [Fam2.1 aminoacylation ribozyme variant] | 5.83 | 2.58 | 5.37 | 16.9 | 4.36 | 3.4
22 | AAGUUUGCUGAUAGCCGCAAG [Fam3.1 aminoacylation ribozyme variant] | 0.586 | 0.968 | 0.736 | 1.49 | 0.91 | 0.846
23 | AUUACCCCGGUCAACGAGUGA [Fam2.1 aminoacylation ribozyme variant] | 6.44 | 3.47 | 4.74 | 28.2 | 5.86 | 3.08
24 | CCACACUUCAGGCAGUCGGUC [Fam1B.1 aminoacylation ribozyme variant] | 1.32 | 1.48 | 1.62 | 0.789 | 1.04 | 1.48
25 | AAUCACCUAGCUCAUCGGGUG [Fam2.2 aminoacylation ribozyme variant] | 3.68 | 3.17 | 2.31 | 17.7 | 2.82 | 2.33
26 | CCACACUUCAAGCAAUCCGAC [Fam1B.1 aminoacylation ribozyme variant] | 0.28 | 0.703 | 0.586 | 0.729 | 0.516 | 0.612

Row | Sequence | self-aminoacylation (biotinyl-Trp-oxazolone) | self-aminoacylation (biotinyl-Val-oxazolone) | self-aminoacylation (biotinyl-Leu-oxazolone) | self-aminoacylation (biotinyl-Phe-oxazolone) | self-aminoacylation (biotinyl-Met-oxazolone) | self-aminoacylation (biotinyl-Ile-oxazolone)
27 | CUACUUCAACCAAGCGGUCUG [Fam1A.1 aminoacylation ribozyme variant] | 0.8 | 0.954 | 0.942 | 0.739 | 0.907 | 1.02
28 | CUACUCCAAACCAUCGGUCUG [Fam1A.1 aminoacylation ribozyme variant] | 1.01 | 0.971 | 1.03 | 1.16 | 0.961 | 1.1
29 | CUGCUUCAAACCAUCGGUCUG [Fam1A.1 aminoacylation ribozyme variant] | 0.706 | 0.887 | 0.631 | 0.756 | 0.677 | 0.708
30 | UUUACCCUGGGCAUCGAGUGA [Fam2.1 aminoacylation ribozyme variant] | 5.06 | 2.83 | 4.84 | 10.4 | 4.18 | 2.3
31 | GAGUUUGCUAAUAGUCGCGAG [Fam3.1 aminoacylation ribozyme variant] | 2.17 | 1.38 | 1.47 | 1.76 | 1.63 | 1.55
32 | AUUACCCUGGUCAUGGAGUGA [Fam2.1 aminoacylation ribozyme variant] | 5.8 | 3.02 | 4.95 | 19.7 | 4.69 | 3.07
33 | AUUACCCUGGGCAUUGAGUGA [Fam2.1 aminoacylation ribozyme variant] | 11.9 | 4.23 | 11.3 | 58.7 | 9.32 | 4.38
34 | AGCACCCUGGUCAUCGAGUGA [Fam2.1 aminoacylation ribozyme variant] | 9.35 | 3.89 | 6.84 | 6.9 | 8.03 | 4.58
35 | AUUACCCUGGUCAUCGAGGGC [Fam2.1 aminoacylation ribozyme variant] | 1.12 | 1.24 | 1.56 | 1.09 | 1.77 | 1.31
36 | CCACUCUGCAAGCAAUCGGUC [Fam1B.1 aminoacylation ribozyme variant] | 1.09 | 1.41 | 1 | 1.11 | 1.06 | 1.24
37 | AUUACCCUGGUCAUUGGGUGA [Fam2.1 aminoacylation ribozyme variant] | 12.9 | 5.6 | 13.1 | 93.4 | 12.1 | 5.58
38 | GUACUUCAAACAAGCGGUCUG [Fam1A.1 aminoacylation ribozyme variant] | 2.06 | 1.49 | 1.63 | 5.04 | 1.42 | 1.78
39 | CCACAAUUCAAGCAGUCGGUC [Fam1B.1 aminoacylation ribozyme variant] | 0.925 | 1.22 | 1.17 | 1.06 | 1.11 | 1.36
40 | AUUCACAUUGGUCAUCGGGUG [Fam2.2 aminoacylation ribozyme variant] | 8.88 | 5.97 | 12.8 | 82.8 | 10.1 | 6.31
41 | AUAACCCUGGUUAUCGAGUGA [Fam2.1 aminoacylation ribozyme variant] | 8.28 | 3.44 | 8.11 | 38.8 | 8.37 | 3.74
42 | AUCCACCUAUGUCAUCGGGUG [Fam2.2 aminoacylation ribozyme variant] | 5.8 | 4.12 | 7.91 | 49.9 | 6.38 | 4.42
43 | AUUACCCAGGUCAUCGACUGA [Fam2.1 aminoacylation ribozyme variant] | 0.9 | 1.03 | 0.746 | 0.774 | 0.743 | 0.847
44 | AAGAUUGCUAAUAGUCGCAAG [Fam3.1 aminoacylation ribozyme variant] | 2.15 | 1.31 | 1.33 | 4.83 | 1.32 | 1.53
45 | CUACUUCAAACAAUCGGACUC [Fam1A.1 aminoacylation ribozyme variant] | 2.57 | 0.7 | 0.624 | 5.7 | 0.563 | 0.675
46 | ACGAUUGCUAAUAGUCGCAAG [Fam3.1 aminoacylation ribozyme variant] | 0.96 | 1.43 | 1.57 | 1.54 | 1.23 | 1.35
47 | AUUCACCUAGGUACUCGGGUG [Fam2.2 aminoacylation ribozyme variant] | 2.78 | 2.11 | 3.3 | 29.8 | 2.47 | 2.15
48 | CCACACUUCAAGCACUUGGUC [Fam1B.1 aminoacylation ribozyme variant] | 0.616 | 0.65 | 0.818 | 1.03 | 0.775 | 0.816
49 | AGGUUUGCUGAUAGUCGCAAG [Fam3.1 aminoacylation ribozyme variant] | 1.83 | 1.2 | 1.83 | 2.52 | 1.53 | 1.49
50 | AUUCAGCUAGGACAUCGGGUG [Fam2.2 aminoacylation ribozyme variant] | 4.43 | 3.53 | 5.98 | 42.1 | 4.65 | 3.53
51 | AAGUUUGCUACUAGUCGUAAG [Fam3.1 aminoacylation ribozyme variant] | 0.867 | 0.783 | 0.759 | 0.833 | 0.848 | 0.772
